# Test results taken from paper PMC10786891, “Massively parallel profiling of RNA-targeting CRISPR-Cas13d”.
# Changes are numbered by the printed parent chain. Names may count otherwise.
# T1: EsCas13d, nuclease-dead (Eubacterium siraeum, UniProt B0MS50, R295A;H300A;R849A;H854A)
# T1 sequence: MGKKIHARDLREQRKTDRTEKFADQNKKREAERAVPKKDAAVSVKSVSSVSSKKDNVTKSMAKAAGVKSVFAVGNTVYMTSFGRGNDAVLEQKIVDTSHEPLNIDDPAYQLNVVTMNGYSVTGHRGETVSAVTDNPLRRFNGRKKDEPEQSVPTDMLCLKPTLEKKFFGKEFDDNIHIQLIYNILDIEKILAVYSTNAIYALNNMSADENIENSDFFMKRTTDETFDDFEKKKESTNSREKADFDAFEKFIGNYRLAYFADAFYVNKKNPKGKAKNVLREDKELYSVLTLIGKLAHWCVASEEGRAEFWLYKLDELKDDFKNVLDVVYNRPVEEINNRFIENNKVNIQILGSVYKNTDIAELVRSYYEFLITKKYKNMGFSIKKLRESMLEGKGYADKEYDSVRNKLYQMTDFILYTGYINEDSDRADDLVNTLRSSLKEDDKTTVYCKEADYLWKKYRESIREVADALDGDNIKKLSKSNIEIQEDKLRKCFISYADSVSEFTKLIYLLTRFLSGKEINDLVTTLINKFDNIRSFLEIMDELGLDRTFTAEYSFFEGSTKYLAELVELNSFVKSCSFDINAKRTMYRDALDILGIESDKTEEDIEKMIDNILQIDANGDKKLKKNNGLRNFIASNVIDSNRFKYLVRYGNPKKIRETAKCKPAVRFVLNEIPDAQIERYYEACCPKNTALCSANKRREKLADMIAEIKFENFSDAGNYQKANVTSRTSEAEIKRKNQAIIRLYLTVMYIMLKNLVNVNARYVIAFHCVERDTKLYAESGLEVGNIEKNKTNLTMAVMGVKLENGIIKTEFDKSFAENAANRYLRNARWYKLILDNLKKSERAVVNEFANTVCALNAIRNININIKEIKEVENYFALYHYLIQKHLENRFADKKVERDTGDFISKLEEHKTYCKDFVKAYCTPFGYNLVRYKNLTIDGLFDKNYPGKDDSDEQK
# B1: target 1 insG 3' of 7,insG 3' of 2 (mixed)
# RNA 1: CACCCGUGCAAAAAUGCAGGGGUCUAAAACUGAGCGGAUAACCUCUCUAUGG
# RNA 2: GGGAAUGGAUCCACAUCUACGAAUUCGUACCAUAGAGAGGUUAUCGCGCUCGACCGAGAUCGGAAGAGCACACGU
# B2: target 1 insG 3' of 11,insA 3' of 11 (mixed)
# RNA 1: B1 RNA 1
# RNA 2: B1 RNA 2 with U42G, C45A, G46U, G48C, C49G, U50C, C51U, G52C
# B3: target 1 insA 3' of 13,insC 3' of 12 (mixed)
# RNA 1: B1 RNA 1
# RNA 2: GGGAAUGGAUCCACAUCUACGAAUUCGUACCAUAGAGAGAGCUUAUCCGCUCACCGAGAUCGGAAGAGCACACGU
# B4: target 1 A9C,U11C (mixed)
# RNA 1: B1 RNA 1
# RNA 2: GGGAAUGGAUCCACAUCUACGAAUUCGUACCAUAGAGAGGCUCUCCGCUCACCGAGAUCGGAAGAGCACACGU
# B5: target 1 insC 3' of 17,insG 3' of 14 (mixed)
# RNA 1: B1 RNA 1
# RNA 2: B3 RNA 2 with A36C, G37A, A38G, G39A, A40G, C42G
# B6: target 1 C6G,U19C (mixed)
# RNA 1: B1 RNA 1
# RNA 2: B4 RNA 2 with U33C, C41U, C43A, C46G
# B7: non-target control (mixed)
# RNA 1: B1 RNA 1
# RNA 2: GGGAAUGGAUCCACAUCUACGAAUUCGUUAGCUAGAAGGGGAAGUUGGUUAUGGAGAUCGGAAGAGCACACGU
# B8: target 1 insC 3' of 9,insA 3' of 7 (mixed)
# RNA 1: B1 RNA 1
# RNA 2: B3 RNA 2 with A40G, G41U, C42U, U43A, U44C, A45U, U46C, C47A
# B9: target 2 MT 5'PFS CGG 3'PFS AGC (mixed)
# RNA 1: CACCCGUGCAAAAUUGCAGGGGUCUAAAACCUUCUCCAAAUUGUUUCAUCCU
# RNA 2: GGGAAUGGAUCCACAUCUACGAAUUCCGGAGGAUGAAACAAUUUGGAGAAGAGCAGAUCGGAAGAGCACACGU
# B10: target 2 MT 5'PFS CUC 3'PFS ACC (mixed)
# RNA 1: B9 RNA 1
# RNA 2: B9 RNA 2 with G28U, G29C, G53C
# B11: target 2 MT 5'PFS CAC 3'PFS UCC (mixed)
# RNA 1: B9 RNA 1
# RNA 2: B9 RNA 2 with G28A, G29C, A52U, G53C
# B12: target 2 MT 5'PFS CGC 3'PFS UAU (mixed)
# RNA 1: B9 RNA 1
# RNA 2: B9 RNA 2 with G29C, A52U, G53A, C54U
# B13: target 2 MT 5'PFS UAU 3'PFS GCA (mixed)
# RNA 1: B9 RNA 1
# RNA 2: B9 RNA 2 with C27U, G28A, G29U, A52G, G53C, C54A
# B14: target 2 MT 5'PFS UAG 3'PFS UCG (mixed)
# RNA 1: B9 RNA 1
# RNA 2: B9 RNA 2 with C27U, G28A, A52U, G53C, C54G
# B15: target 2 MT 5'PFS CGC 3'PFS UAC (mixed)
# RNA 1: B9 RNA 1
# RNA 2: B9 RNA 2 with G29C, A52U, G53A
# B16: target 2 MT 5'PFS GCU 3'PFS CUC (mixed)
# RNA 1: B9 RNA 1
# RNA 2: B9 RNA 2 with C27G, G28C, G29U, A52C, G53U
# B17: target 2 MT 5'PFS CAC 3'PFS UCA (mixed)
# RNA 1: B9 RNA 1
# RNA 2: B9 RNA 2 with G28A, G29C, A52U, G53C, C54A
# B18: target 2 MT 5'PFS CUC 3'PFS ACU (mixed)
# RNA 1: B9 RNA 1
# RNA 2: B9 RNA 2 with G28U, G29C, G53C, C54U
# B19: target 2 MT 5'PFS CAC 3'PFS UCU (mixed)
# RNA 1: B9 RNA 1
# RNA 2: B9 RNA 2 with G28A, G29C, A52U, G53C, C54U
# B20: target 2 MT 5'PFS GCG 3'PFS UGU (mixed)
# RNA 1: B9 RNA 1
# RNA 2: B9 RNA 2 with C27G, G28C, A52U, C54U
# B21: target 2 MT 5'PFS CAC 3'PFS UCG (mixed)
# RNA 1: B9 RNA 1
# RNA 2: B9 RNA 2 with G28A, G29C, A52U, G53C, C54G
# B22: target 2 MT 5'PFS AGG 3'PFS AAU (mixed)
# RNA 1: B9 RNA 1
# RNA 2: B9 RNA 2 with C27A, G53A, C54U
# B23: target 2 MT 5'PFS UGG 3'PFS CCA (mixed)
# RNA 1: B9 RNA 1
# RNA 2: B9 RNA 2 with C27U, A52C, G53C, C54A
# B24: target 2 MT 5'PFS GUA 3'PFS AGC (mixed)
# RNA 1: B9 RNA 1
# RNA 2: B9 RNA 2 with C27G, G28U, G29A
# B25: target 2 MT 5'PFS GGC 3'PFS UGC (mixed)
# RNA 1: B9 RNA 1
# RNA 2: B9 RNA 2 with C27G, G29C, A52U
# B26: target 2 MT 5'PFS CUC 3'PFS ACA (mixed)
# RNA 1: B9 RNA 1
# RNA 2: B9 RNA 2 with G28U, G29C, G53C, C54A
# B27: target 2 MT 5'PFS GUA 3'PFS AGU (mixed)
# RNA 1: B9 RNA 1
# RNA 2: B9 RNA 2 with C27G, G28U, G29A, C54U
# B28: target 2 MT 5'PFS CGG 3'PFS AGG (mixed)
# RNA 1: B9 RNA 1
# RNA 2: B9 RNA 2 with C54G
# B29: target 2 MT 5'PFS CUC 3'PFS ACG (mixed)
# RNA 1: B9 RNA 1
# RNA 2: B9 RNA 2 with G28U, G29C, G53C, C54G
# B30: target 2 MT 5'PFS CGC 3'PFS UAA (mixed)
# RNA 1: B9 RNA 1
# RNA 2: B9 RNA 2 with G29C, A52U, G53A, C54A
# B31: target 2 MT 5'PFS GUA 3'PFS AGG (mixed)
# RNA 1: B9 RNA 1
# RNA 2: B9 RNA 2 with C27G, G28U, G29A, C54G
# B32: target 2 MT 5'PFS UAG 3'PFS UUU (mixed)
# RNA 1: B9 RNA 1
# RNA 2: B9 RNA 2 with C27U, G28A, A52U, G53U, C54U
# B33: target 2 MT 5'PFS UGG 3'PFS CCU (mixed)
# RNA 1: B9 RNA 1
# RNA 2: B9 RNA 2 with C27U, A52C, G53C, C54U
# B34: target 2 MT 5'PFS CGG 3'PFS AGA (mixed)
# RNA 1: B9 RNA 1
# RNA 2: B9 RNA 2 with C54A
# B35: target 2 MT 5'PFS AGG 3'PFS UAC (mixed)
# RNA 1: B9 RNA 1
# RNA 2: B9 RNA 2 with C27A, A52U, G53A
# B36: target 2 MT 5'PFS GUA 3'PFS AGA (mixed)
# RNA 1: B9 RNA 1
# RNA 2: B9 RNA 2 with C27G, G28U, G29A, C54A
# B37: target 2 MT 5'PFS ACC 3'PFS CCG (mixed)
# RNA 1: B9 RNA 1
# RNA 2: B9 RNA 2 with C27A, G28C, G29C, A52C, G53C, C54G
# Biological target: T1, EsCas13d, nuclease-dead
# Experiment: crRNA (strand 1, pre-loaded); Mg2+; 40 mM Tris-HCl pH 7.5, 150 mM NaCl, 6 mM MgCl2, 1 mM DTT, 0.1% Tween-20, 0.2 mg/ml BSA; 25 C; 10 min per concentration, then washed
# Conditions: tags: His6-TwinStrep-SUMO cleaved; N-terminal SNAP kept (SNAP-Surface 488); label: 3' end held by stalled T7 RNA polymerase
row,Binder,Kd [nM]
1,B1,6.9 ± 0.4
2,B2,15.2 ± 0.8
3,B3,6.3 ± 0.9
4,B4,20 ± 1.7
5,B5,38 ± 4
6,B6,29.8 ± 2.8
7,B7,> 100
8,B8,10.4 ± 0.4
9,B9,4.7 ± 0.9
10,B10,2.3 ± 0.4
11,B11,4.9 ± 0.7
12,B12,3.7 ± 0.4
13,B13,~70
14,B14,4.1 ± 0.5
15,B15,6.3 ± 0.8
16,B16,24 ± 8
17,B17,4.1 ± 0.6
18,B18,2.14 ± 0.28
19,B19,4.7 ± 0.6

row,Binder,Kd [nM]
1,B20,17.4 ± 2.1
2,B21,3.9 ± 0.8
3,B22,4.7 ± 0.9
4,B23,15.3 ± 3.1
5,B24,6.4 ± 0.6
6,B25,13.2 ± 1.3
7,B26,3.1 ± 1.4
8,B27,12.4 ± 1.4
9,B28,4.5 ± 0.5
10,B29,1.68 ± 0.18
11,B30,3.9 ± 0.6
12,B31,8.6 ± 0.6
13,B32,6.5 ± 0.7
14,B33,68 ± 33
15,B34,4.1 ± 0.7
16,B35,7.3 ± 1.2
17,B36,6.5 ± 0.8
18,B37,12 ± 5
